B1: TPR t1 (parent)
chain: GACCAAUCUGCCCUCAGAGCUCGAGAACAUCUUCGGAUGCAGAGGAGGCAGGCUUCGGUGGCGCGAUAGCGCCAACGUCCUCAACCUCCAAUGCAUCCCACCACAUGAUGAUGCCUGAAGAGCCUUGGUUUUUUG

Variants of: B1
Test: polymerase ribozyme fitness, log enrichment relative to wild type (log ratio); higher = more active; in vitro selection for triplet polymerase activity
Outline: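 Both subunits of a heterodimeric triplet polymerase ribozyme were given their own mutant library, built by PCR and transcribed. Each library was annealed with a biotinylated primer, the partner subunit and triplets, incubated frozen at −7 °C, and its extended constructs gel-excised, captured on streptavidin beads and amplified by RT-PCR, all in one round done in triplicate. Fitness is the logarithm of genotype enrichment relative to wild-type enrichment, with replicates averaged by inverse-variance weighting. That logarithm is base 2, and Illumina-sequenced genotypes needed ≥10 input reads and ≥1 read per output.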

Row | Variant | polymerase ribozyme fitness (log ratio)
1 | U87A C88A U96C | -1.02
2 | A83C C88U | -0.561
3 | C88G G120C | -0.00486
4 | C88G G120A | -1.21
5 | A84U U133G | -0.42
6 | C85G G117C G128U | -7.06
7 | C88U U129C | -0.178
8 | A90C C94U | -1.34
9 | C88A C97U U109A G110C | -6.36
10 | A83U C115U C123G G135U | -1.98
11 | C88G G120A U129A | -1.48
12 | A84G C88U | -0.134
13 | A91C C104U | -1.08
14 | A84C C124G | 1.9
15 | A84C C124A | 1.76
16 | C88U G93A | -0.936
17 | U81A C82A C98U | -3.39
18 | U87A C88U | -1.46
19 | G93A G117C U130G | -5.98
20 | C89A A91U | -1.18
21 | C85G G113C | -3.51
22 | C85G G113A | -2.15
23 | A84U U109G | -4.27
24 | U87C G120U | -1.06

Row | Variant | polymerase ribozyme fitness (log ratio)
25 | A83G C89A U106G | -4.3
26 | C86G A100U G128C | -3.41
27 | A84U U106G A118G | -1.83
28 | C86U A100C G110U U129C | -4.69
29 | C85G U132A | -1.6
30 | C88A C101A | -1.2
31 | U92G A108U U112A G113A | -6.92
32 | C88U G117A | -1.32
33 | C85U U109A | -6.03
34 | C88U U125G | -1.39
35 | C86U A103C | -5.52
36 | C82G U109C | -5.03
37 | U87G A111U | -2.77
38 | U92C C123G | 0.159
39 | A91C U96A | -2.09
40 | C85A U116C | -2.08
41 | A83C G113U | -3.09
42 | C89A A111G | -1.35
43 | C89A A111C | -2.88
44 | C82G G110U | -3.25
45 | A91U U112A G117C C123U U134A | -2.54
46 | C86A G120U | -0.761
47 | U81G C94G G117U | -6.8
48 | C88U G93A A108G C115U A118U G135C | -4.45

Row | Variant | polymerase ribozyme fitness (log ratio)
49 | U87G A91U U109A U125C | -5.71
50 | C82U U96G G122A | -1.25
51 | C89U A100U | -1.41
52 | C89A A121U U125G | -0.211
53 | C82U C88G C124U | 0.172
54 | C82G G117C | -3.58
55 | C80U C85A | -2.89
56 | U87G C102A C124G | 0.127
57 | U92G C97U G110U | -5.82
58 | A84U C115A U125G | -0.872
59 | U81A G117U | -3.99
60 | C85U G135U | -1.91
61 | U87A G113A | -1.76
62 | C85A G113C G122C U129C | -4.98
63 | C88U G120U U132C | 0.106
64 | C80U U106A | -0.267
65 | U81G A95U | -6.29
66 | C80G U132C | -4.66
67 | A90U G93A U112C | -0.194
68 | U92A C124U | -1.43
69 | C85G A90U G127C U133A | -4.53
70 | C86A A91U | -2.01
71 | C82G A118U | 0.179
72 | A91C C123U | -0.37

Row | Variant | polymerase ribozyme fitness (log ratio)
73 | A91G C97A A118U | -5.26
74 | U87C C98A | -4.87
75 | C89U C115A | 0.206
76 | C85U A91C A95G | -2.23
77 | C88A A121C | 1.66
78 | C80U U133G | -0.514
79 | C85G U130G | -2.71
80 | U81G G93A U106A C123U | -3.83
81 | A84C C85G G93A C101U | -2.22
82 | A83C G107U G113A | -3.74
83 | A83C U92A C114A G128C | -6.64
84 | A91C | -1.4
85 | A91U | -1.81
86 | A91G | -0.586
87 | C82U A91U A100U | -3.25
88 | U81G C124A G128C U130G | -2.26
89 | A91G A100C A111U A121G | -3.81
90 | C86U G93U U106C C124U U126A | -2.34
91 | C85G G110A U126C | -2.99
92 | A91C A118G | -2.33
93 | G93A C123A | 0.264
94 | C86A G127C | -1.91
95 | U92A A108U U112C G113A A121G | -6.52
96 | A83G C86A G113A | -2.01

Row | Variant | polymerase ribozyme fitness (log ratio)
97 | A90U U116C | -1.26
98 | A84C | -0.112
99 | A84U | -0.405
100 | A84G | -0.482
101 | C89U C99G A100C C123G | -7.05
102 | A84G C88U U116G C124A | -0.458
103 | C82A G110U C123U | -2.47
104 | C85G G117C | -5.23
105 | U92G C101A | -4.03
106 | C82A C97G | -5.53
107 | C88G G117C U133A | -3.79
108 | C85G C97U | -2.99
109 | C85U A90U U109G C124A | -6.07
110 | C80A C114G G117U | -6.34
111 | U87G G113U | -3.33
112 | C85A C102U A121U C124U | -1.07
113 | C89A C94A C115U U130A | -3.36
114 | G93A G117C | -3.87
115 | A84U C97A | -5.72
116 | C82G G93C U129G | -2.84
117 | A83C G93C | -0.701
118 | C80A U96C C115A | -3.34
119 | C88U C98A U106G | -5.05
120 | C89A C123U | -0.0853

Row | Variant | polymerase ribozyme fitness (log ratio)
121 | A90C C104U A105C | -5.64
122 | C82U C89U G113U G120A G128A | -5.47
123 | A84C C114G G127A | -4.73
124 | A84U U106A | -0.185
125 | C86U C94U C115A | -0.874
126 | U92A C123A | -3.22
127 | U92A C123G | -0.636
128 | C86U U87A C101A U129G | -3.91
129 | A84U G128A | -1.72
130 | C86G C88A | -1.96
131 | C88U U112G | 0.74
132 | A84U U130C | 0.517
133 | C89G G113A | -3.42
134 | C89G G113U | -3.93
135 | C85G A119G | -0.0195
136 | U81A A91G U92G | -4.76
137 | C89A U116G C123G | -3.17
138 | C88A G113U | -2.76
139 | C86U G110C | -3.72
140 | A83G C97U C115A G135C | -1.7
141 | A84G U129G | -1.32
142 | U81C C114A | -2.34
143 | C80A U116G G120C C123A | -3.59
144 | A83C C101G U109A G120A | -7.06

Row | Variant | polymerase ribozyme fitness (log ratio)
145 | C82G C99U | -3.61
146 | C82U U96A C101A G127A | -4.42
147 | C85U G113A | -2.02
148 | U87A U129A | -0.873
149 | C82G G128A | -2.22
150 | U92A A119G G127C | -2.05
151 | U81A A90U | -2.41
152 | A90G U112A | 1.08
153 | A91G U106G A111G | -3.06
154 | C85A A95U A100U | -3.28
155 | C89G A111C | -2.08
156 | C88U G110U U125G | -2.46
157 | U92A U109G | -5.94
158 | A84G A118G | -0.615
159 | G93A G113U C114G | -2.9
160 | C86U G113A G127C | -1.64
161 | A84U G117C C124G | -1.4
162 | C88U A121C | 1.77
163 | C88U C124A | 1.47
164 | C89A G93A U106A | -3.07
165 | A83U U125A | -0.797
166 | C85A C101G U109G G117C | -7.01
167 | C86U G120A U130C G135U | -0.0631

— the RNAGym collection of RNA variant scans (doi:10.1073/pnas.2313332121)
